Paper PMC11240984

Columns and labels:
[1] = biological target: F-actin (fibrillar actin from rabbit skeletal muscle) (rabbit) (UniProt P68135); experiment: co-sedimentation; 10 µM F-actin with 0.5 to 7.5 µM Tpm in 30 mM Hepes-Na pH 7.3, 200 mM NaCl; pelleted at 100,000 x g; SDS-PAGE of pellet and supernatant; apparent affinity, K50% = free Tpm at half-saturation of actin
[2] = biological target: F-actin (fibrillar actin from rabbit skeletal muscle) (rabbit) (UniProt P68135); experiment: light scattering on heating (thermally induced dissociation of Tpm from F-actin); 20 µM phalloidin-stabilized F-actin and 10.5 µM Tpm (legend: 10 µM) in 30 mM Hepes-Na pH 7.3, 100 mM NaCl; heated to 65 °C at 1 °C/min; 350 nm, 90°; T_diss = temperature of 50% decrease in light scattering
[3] = biological target: F-actin (fibrillar actin from rabbit skeletal muscle) (rabbit) (UniProt P68135)
[4] = viscosity measurement (falling ball micro viscometer); Tpm 1 mg/mL in 30 mM Hepes-Na pH 7.3, NaCl from 30 to 200 mM, 4 mM DTT, 20 °C; excess viscosity over buffer as measure of end-to-end interactions between adjacent Tpm molecules; details: other: viscosity measurement (falling ball micro viscometer)

Row | Substance | K50% [1] | T diss (temperature of half-dissociation of Tpm from F-actin) [2] | bending stiffness of Tpm–F-actin filaments, two-beam optical trap, median (IQT, N); F-actin alone 2.35 [3] | excess viscosity at 30 mM NaCl [4] | excess viscosity at 200 mM NaCl [4] | solution viscosity at 200 mM NaCl [4]
1 | AS-Tpm1.8, Tpm1.8 with N-terminal Ala-Ser extension (natural protein) | 0.59 µM | 44.4 °C | 8.1e-26 N∙m^2 |  |  | 
2 | AS-Tpm1.9, Tpm1.9 with N-terminal Ala-Ser extension |  |  |  | approximately 2.25 mPa·s for 30 mM NaCl | close to 0.5 mPa·s for 200 mM NaCl | 
3 | AS-Tpm1.9, Tpm1.9 with N-terminal Ala-Ser extension (natural protein) | 0.98 µM | 47 °C | 4.7e-26 N∙m^2 |  |  | 
4 | Tpm1.8, cytoplasmic tropomyosin isoform (human, TPM1 gene product) |  |  |  |  |  | 0.593 mPa·s
5 | Tpm1.8, cytoplasmic tropomyosin isoform (human, TPM1 gene product) (natural protein) | 0.3 µM | 44.4 °C | 3.75e-26 N∙m^2 |  |  | 
6 | Tpm1.9, cytoplasmic tropomyosin isoform (human, TPM1 gene product) |  |  |  | approximately 2.25 mPa·s for 30 mM NaCl | close to 0.5 mPa·s for 200 mM NaCl | 0.886 mPa·s
7 | Tpm1.9, cytoplasmic tropomyosin isoform (human, TPM1 gene product) (natural protein) | 0.79 µM | 46.2 °C | 4.8e-26 N∙m^2 |  |  | 
